Assay results published in patent US20080146500A1, “Selective Vpac2 Receptor Peptide Agonists” (priority 2004, published 2008).
Like-named read-outs stand apart in the source and are kept apart here. Square brackets hold non-standard residues; d marks the D form. Ends that are not written are not given here. * marks the point of attachment. Hexanoyl = CCCCCC(=O)*; Aib = CC(C)(N)C(=O)O

Tests used:
[1] = biological target: T1, human VPAC2 (Homo sapiens, UniProt P41587); assay: Alpha screen in vitro potency: human VPAC2-R mediated cAMP generation; assay type: cell-based; conditions: single results or mean of two or more independent runs
T1 construct: expressed in transfected cells
T1 sequence (P41587 24-438): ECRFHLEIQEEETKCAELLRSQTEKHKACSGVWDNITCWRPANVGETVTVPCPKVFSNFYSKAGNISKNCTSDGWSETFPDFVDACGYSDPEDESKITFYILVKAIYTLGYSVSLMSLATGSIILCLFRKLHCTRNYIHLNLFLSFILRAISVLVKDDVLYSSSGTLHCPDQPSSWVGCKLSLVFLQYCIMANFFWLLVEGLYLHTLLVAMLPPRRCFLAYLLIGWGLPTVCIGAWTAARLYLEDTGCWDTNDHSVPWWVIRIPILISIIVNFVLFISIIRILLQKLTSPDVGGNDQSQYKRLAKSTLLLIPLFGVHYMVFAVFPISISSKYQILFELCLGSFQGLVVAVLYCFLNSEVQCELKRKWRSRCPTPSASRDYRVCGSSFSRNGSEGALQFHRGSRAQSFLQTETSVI

[2] = biological target: T1, human VPAC2; assay: Filter binding assay, membranes from stable VPAC2 cell line, 125I-labeled VIP tracer; conditions: read-out: Human receptor binding (IC50; nM) VPAC2
Procedure: (§1) For this assay, the solutions and equipment include:
(§2) Presoak solution: 0.5% Polyethyleneamine in Aqua dest.
(§3) Buffer for flushing filter plates: 25 mM HEPES pH 7.4
(§4) Blocking buffer: 25 mM HEPES pH 7.4; 0.2% protease free BSA
(§5) Assay buffer: 25 mM HEPES pH 7.4; 0.5% protease free BSA
(§6) Dilution and assay plate: PS-Microplate, U form
(§7) Filtration Plate Multiscreen FB Opaque Plate; […] Type B Glasfiber filter
(§8) In order to prepare the filter plates, the presoak solution is aspirated by vacuum filtration. The plates are flushed twice with 200 μL flush buffer. 200 μL blocking buffer is added to the filter plate. The filter plate is then incubated with 200 μL presoak solution for 1 hour at room temperature.
(§9) The assay plate is filled with […] (2.5 μg) suspended in assay buffer, 25 μL compound (agonist) in assay buffer, and 25 μL tracer (about 40000 cpm) in assay buffer. The filled plate is incubated for 1 hour with shaking.
(§10) The transfer from assay plate to filter plate is conducted. The blocking buffer is aspirated by vacuum filtration and washed two times with flush buffer. 90 μL is transferred from the assay plate to the filter plate. The 90 μL transferred from assay plate is aspirated and washed three times with 200 μL flush buffer. The plastic support is removed. It is dried for 1 hour at 60° C. 30 μL Microscint is added. The count is performed.
(§11) Values reported are single results or the mean of two or more independent runs.

[3] = biological target: T2, human VPAC1 (Homo sapiens, UniProt P32241); assay: Filter binding assay, membranes from cells transiently transfected with human VPAC1, 125I-labeled VIP tracer; conditions: read-out: Human receptor binding (IC50; nM) VPAC1
T2 construct: expressed in transfected cells
T2 sequence (P32241 31-457): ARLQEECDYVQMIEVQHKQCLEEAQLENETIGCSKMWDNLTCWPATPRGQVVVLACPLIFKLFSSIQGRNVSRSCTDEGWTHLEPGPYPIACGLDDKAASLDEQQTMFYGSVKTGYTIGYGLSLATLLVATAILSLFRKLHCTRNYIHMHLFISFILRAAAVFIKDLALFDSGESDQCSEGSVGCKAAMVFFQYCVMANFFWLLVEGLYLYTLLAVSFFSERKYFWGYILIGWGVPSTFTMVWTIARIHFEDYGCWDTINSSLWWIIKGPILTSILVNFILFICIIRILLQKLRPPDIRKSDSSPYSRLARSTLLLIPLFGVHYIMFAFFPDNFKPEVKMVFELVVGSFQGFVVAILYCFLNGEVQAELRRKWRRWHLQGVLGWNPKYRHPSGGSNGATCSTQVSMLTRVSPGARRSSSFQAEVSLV
Procedure: as §1, §2, §3, §4, §5, §6, §7, §8, §9, §10, §11

[4] = biological target: T3, human PAC1 (Homo sapiens, UniProt P41586); assay: Filter binding assay, membranes from cells transiently transfected with human PAC1, 125I-labeled PACAP-27 tracer; conditions: read-out: Human receptor binding (IC50; nM) PAC1
T3 construct: expressed in transfected cells
T3 sequence (P41586 21-468): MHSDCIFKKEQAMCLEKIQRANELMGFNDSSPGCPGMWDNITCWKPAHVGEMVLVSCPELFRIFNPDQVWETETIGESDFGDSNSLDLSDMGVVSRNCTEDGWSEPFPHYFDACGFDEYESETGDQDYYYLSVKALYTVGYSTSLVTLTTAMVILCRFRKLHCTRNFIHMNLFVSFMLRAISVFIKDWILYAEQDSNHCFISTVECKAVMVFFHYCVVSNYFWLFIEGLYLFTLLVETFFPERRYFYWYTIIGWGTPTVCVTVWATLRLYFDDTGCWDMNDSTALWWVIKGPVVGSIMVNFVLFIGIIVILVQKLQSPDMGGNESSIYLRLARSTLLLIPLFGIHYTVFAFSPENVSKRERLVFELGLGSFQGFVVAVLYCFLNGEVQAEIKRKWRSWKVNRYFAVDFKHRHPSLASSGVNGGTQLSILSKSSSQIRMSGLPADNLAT
Procedure: as §1, §2, §3, §4, §5, §6, §7, §8, §9, §10, §11

[5] = Rat serum stability at 37 C, remaining active peptide estimated by EC50,4C/EC50,37C in CHO-VPAC2 cAMP assay
Procedure: The rat serum is stored at 4° C. until use and is used within two weeks.
On Day 0, two 100 μL aliquots of 10 μM peptide in rat serum are prepared by adding 10 μL peptide stock to 90 μL rat serum for each aliquot. 250 kIU aprotinin/mL is added to one of these aliquots. The aliquot is stored with aprotinin at 4° C. The aliquot is stored without aprotinin at 37° C. The aliquots are incubated for […].
On Day 1, after incubation of the aliquots prepared on day 0 for 24 hours, an incubation buffer containing PBS+1.3 mM CaCl2, 1.2 mM MgCl2, 2 mM glucose, and 0.25 mM IBMX is prepared. A plate with 11 serial 5× dilutions of peptide for the 4° C. and 37° C. aliquot is prepared for each peptide studied. […] The plate(s) are washed with cells twice in incubation buffer. The plates are allowed to hold 50 μL incubation media per well for 15 minutes. 50 μL solution per well is transferred to the cells from the plate prepared with 11 serial 5× dilutions of peptide for the 4° C. and 37° C. aliquot for each peptide studied, using the maximal concentrations that are indicated by the primary screen, in duplicate. This step dilutes the peptide concentration by a factor of two. The cells are incubated at room temperature for 30 minutes. The supernatant is removed. 40 μL/well of the DiscoveRx antibody/extraction buffer is added. The cells are incubated on the shaker (300 rpm) for 1 hour. Normal procedure with the DiscoveRx kit is followed. cAMP standards are included in column 12. EC50 values are determined from the cAMP assay data.

[6] = biological target: T4, rat VPAC1 receptor (Rattus norvegicus, UniProt P30083); assay: Rat VPAC1 in vitro potency (cAMP generation, DiscoveRx) in transiently transfected CHO-PO cells; assay type: cell-based; conditions: CHO-PO cells transiently transfected with rat VPAC1; read-out: rVPAC1 in vitro potency (cAMP generation) EC50
T4 construct: expressed in transfected cells; host or cells: CHO-PO cells, transient
T4 sequence (P30083 31-459): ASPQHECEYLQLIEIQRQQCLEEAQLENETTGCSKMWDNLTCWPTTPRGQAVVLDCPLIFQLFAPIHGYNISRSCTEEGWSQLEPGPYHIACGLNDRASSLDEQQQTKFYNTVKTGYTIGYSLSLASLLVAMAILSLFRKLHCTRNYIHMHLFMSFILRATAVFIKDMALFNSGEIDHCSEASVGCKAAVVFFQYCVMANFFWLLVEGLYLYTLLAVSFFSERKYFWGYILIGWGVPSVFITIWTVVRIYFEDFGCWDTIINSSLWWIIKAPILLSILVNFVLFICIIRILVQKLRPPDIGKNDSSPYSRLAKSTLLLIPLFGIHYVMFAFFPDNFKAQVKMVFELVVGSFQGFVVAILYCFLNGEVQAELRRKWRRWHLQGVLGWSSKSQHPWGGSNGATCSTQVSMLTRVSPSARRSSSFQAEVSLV
Procedure: (§12) Rat receptor selectivity is estimated by comparing functional potency (cAMP generation) in CHO-PO cells transiently expressing rat VPAC1 or rat VPAC2 receptors. CHO-PO cells transiently expressing rat VPAC1 or VPAC2, are seeded with 10,000 cells/well three days before the assay. The cells are kept in 200 μL culture medium. […] The stimuli are present for 30 minutes. The assay buffer is then gently removed.

[7] = biological target: T5, rat VPAC2 receptor (Rattus norvegicus, UniProt P35000); assay: Rat VPAC2 in vitro potency (cAMP generation, DiscoveRx) in transiently transfected CHO-PO cells; assay type: cell-based; conditions: CHO-PO cells transiently transfected with rat VPAC2; read-out: rVPAC2 in vitro potency (cAMP generation) EC50
T5 construct: expressed in transfected cells; host or cells: CHO-PO cells, transient
T5 sequence (P35000 23-437): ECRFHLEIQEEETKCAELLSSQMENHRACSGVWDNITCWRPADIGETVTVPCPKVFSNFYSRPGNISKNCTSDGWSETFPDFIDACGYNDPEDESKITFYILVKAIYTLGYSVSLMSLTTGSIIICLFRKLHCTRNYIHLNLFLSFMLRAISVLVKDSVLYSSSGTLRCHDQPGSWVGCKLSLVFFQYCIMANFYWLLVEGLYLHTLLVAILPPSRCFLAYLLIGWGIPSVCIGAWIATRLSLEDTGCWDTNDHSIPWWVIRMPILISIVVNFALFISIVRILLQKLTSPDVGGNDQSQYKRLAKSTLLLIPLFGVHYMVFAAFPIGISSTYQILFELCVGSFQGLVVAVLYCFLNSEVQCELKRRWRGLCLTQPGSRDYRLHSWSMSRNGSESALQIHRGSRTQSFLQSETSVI
Procedure: as §12

[8] = Pharmacokinetic profiles of PEGylated peptides, plasma peptide by RIA; assay type: in vivo, Fisher 344 rats
Procedure: Pharmacokinetic profiles of PEGylated peptides. Healthy Fisher 344 rats (3 animals per group) are injected with 100 μg compound/kg (compound amount based on peptide content and dissolved in PBS buffer). […] PK parameters are then calculated using a model-independent method (WinNonlin Pro, Pharsight Corp., Mountain View, Calif., USA).

[9] = Fisher 344 rats, 100 μg compound/kg, plasma RIA, mean N = 3

Substance | EC50 [1] | IC50 [2] | IC50 [3] | also measured
C6-HSDAVFTDNYTRLRAibQVAAKAibYLQSIKNKRYGGPSSGAPPPC(PEG40K)-NH2 (Hexanoyl-HSDAVFTDNYTRLR[Aib]QVAAK[Aib]YLQSIKNKRYGGPSSGAPPPC(PEG 40 kDa)-NH2) [Agonist P286] | 6.65 nM | 0.46 nM | > 3000 nM | IC50 [4]: > 25000 nM; Estimated 72 h stability (%) ([5]; after 72 h in rat serum at 37 C, values >100% may represent release of intact peptide from the PEG conjugate): 60.5%
C6-HSDAVFTDNYThRLRAibQVAAAibKYLQSIhRNhRhRYGGPSSGAPPPC(PEG40K)-NH2 (HSDAVFTDNYTXLRXQVAAXKYLQSIXNXXYGGPSSGAPPPC; non-natural residues) [Agonist P340] | 7.74 nM | 4.76 nM | > 3000 nM | IC50 [4]: > 25000 nM; EC50 [6]: 116 nM; EC50 [7]: 4 nM; AUC0-last [8, 9]: 515 ng·h/mL; Cmax [8, 9]: 44 ng/mL; Tmax [8, 9]: 6 h
P217 (Hexanoyl-HSDAVFTDNYTRLRK(PEG 20 kDa)QVAAK(PEG 20 kDa)RYLQSIRNGGPSSGAPPPS) [Agonist P217] | > 3000 nM |  |  | 
P217 (Hexanoyl-HSDAVFTDNYTRLRK(PEG 20 kDa)QVAAK(PEG 20 kDa)RYLQSIRNGGPSSGAPPPS) [Compound P217] |  |  |  | Cl/F ([8]; rat, in vivo): 0.12 mL/min/kg; Tmax ([8]; rat, in vivo): 20 h; T½ ([8]; rat, in vivo): 49 h; Vd/F ([8]; rat, in vivo): 0.421 L/kg
P219 (Hexanoyl-HSDAVFTDNYTRLRRQVAAK(PEG 20 kDa)RYLQSIRNGGPSSGAPPPS) [Agonist P219] | 25.5 nM | 67.9 nM | > 25000 nM | 
P219 (Hexanoyl-HSDAVFTDNYTRLRRQVAAK(PEG 20 kDa)RYLQSIRNGGPSSGAPPPS) [Compound P219] |  |  |  | Estimated 72 h stability (%) [5]: 45.6%
P245 (HSDAVFTDNYTRLRKQVAARRYLQSIRNGGPSSGAPPPS; not fully specified (residue 15, N-terminus)) [Agonist P245] | 450 nM | 921 nM | > 25000 nM | 
P246 (Hexanoyl-HSDAVFTDNYTRLRRQVAAK(PEG 40 kDa)RYLQSIRNGGPSSGAPPPS) [Agonist P246] | 398 nM | > 1000 nM | > 25000 nM | 
P247 (HSDAVFTDNYTRLRRQVAARKYLQSIRNGGPSSGAPPPS; not fully specified (residue 21, N-terminus)) [Agonist P247] | 133 nM | 353 nM | > 25000 nM | 
P247 (HSDAVFTDNYTRLRRQVAARKYLQSIRNGGPSSGAPPPS; not fully specified (residue 21, N-terminus)) [Compound P247] |  |  |  | Estimated 72 h stability (%) [5]: 16.7%
P300 (Hexanoyl-HSDAVFTDNYTRLR[Aib]QVAA[Aib]KYLQSIKNKRYGGPSSGAPPPC(PEG 40 kDa)-NH2) [Agonist P300] | 6.62 nM | 1.76 nM | > 3000 nM | IC50 [4]: > 25000 nM; EC50 [7]: 5.8 nM
P300 (Hexanoyl-HSDAVFTDNYTRLR[Aib]QVAA[Aib]KYLQSIKNKRYGGPSSGAPPPC(PEG 40 kDa)-NH2) [Compound P300] |  |  |  | Cl/F ([8]; rat, in vivo): 1.2 mL/min/kg; Tmax ([8]; rat, in vivo): 10 h; T½ ([8]; rat, in vivo): 15 h; Vd/F ([8]; rat, in vivo): 1.557 L/kg
